Data taken from patent publication US20230070752A1 (KOREA ADVANCED INSTITUTE OF SCIENCE AND TECHNOLOGY, published 2023).
Residue numbers refer to the chain shown, from its start. Names may count otherwise. Values belong to the binder of their own block, whether it stands above or below them.

Tests used:
[1] = target: T1, IFNλR1 (UniProt Q8IU57 21-228, limits assumed); assay: BLI (BLItz), biotinylated eIFNλ4 immobilized on streptavidin biosensor, IFNλR1 as analyte (500, 1000, 2000 nM), 1:1 global fit; column head k dis
T1 construct: Soluble protein used at 500, 1000 and 2000 nM in BLI; also called IFNLR1; interferon lambda receptor 1
T1 sequence (looked up): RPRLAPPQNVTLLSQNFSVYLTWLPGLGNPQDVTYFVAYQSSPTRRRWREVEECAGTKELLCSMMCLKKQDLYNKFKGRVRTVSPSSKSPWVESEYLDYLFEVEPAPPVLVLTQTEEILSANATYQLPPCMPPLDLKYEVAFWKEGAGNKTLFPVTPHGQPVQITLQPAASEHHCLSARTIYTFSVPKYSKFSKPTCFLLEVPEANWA
Procedure: (§1) Sensorgrams were obtained from BLItz instrument. Data points are shown in grey and the corresponding fits are shown in red (IFNλR1) and blue (IL10Rβ). KD values were calculated from 1:1 global fitting.
(§2) The binding kinetics of the IFNλ4 variant to IFNλR1 and IL10Rβ were measured using biolayer light interferometry (BLI) in a BLItz system (ForteBio, Pall Life Sciences). The mixture was stirred in a washing buffer (200 mM NaCl, 20 mM Tris-HCl pH 8, 5% glycerol, 0.01% Tween-20) at 2,200 rpm. Analysis was performed at room temperature. 0.25 mg/ml of biotinylated IFNλ4 was loaded on the surface of the streptavidin biosensor (ForteBio) for 1 minute, and then the loaded biosensor was washed with a washing buffer (200 mM NaCl, 20 mM Tris-HCl pH 8, 5% glycerol, 0.01% Tween-20) for 2 minutes to remove unbound protein. The biosensor tip was immersed in drops containing the indicated concentrations of IFNλR1 and IL10Rβ (500, 1000 and 2000 nM). Associations (on rate, kon) were measured at intervals of 2 minutes. Subsequently, the sensor was immersed in the washing buffer for 2 minutes to measure dissociations (off-rate koff). KD measured in nanomoles was calculated as a ratio of […]. The resulting data was analyzed by fitting to a 1:1 ligand model using the entire global fitting function.

[2] = target: T2, IL10Rβ (UniProt Q08334 20-220, limits assumed); assay: BLI (BLItz), biotinylated IFNλ4 on streptavidin sensor, IL10Rβ in solution at 500-2000 nM, 1:1 global fit
T2 construct: Soluble protein used at 500, 1000 and 2000 nM in BLI; also called IL10RB; interleukin-10 receptor beta
T2 sequence (looked up): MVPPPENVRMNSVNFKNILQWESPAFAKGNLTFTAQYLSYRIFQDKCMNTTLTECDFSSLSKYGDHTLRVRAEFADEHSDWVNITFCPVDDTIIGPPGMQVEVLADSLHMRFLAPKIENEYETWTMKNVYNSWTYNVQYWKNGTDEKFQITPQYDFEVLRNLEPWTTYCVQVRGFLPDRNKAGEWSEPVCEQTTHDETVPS
Procedure: as §1, §2
(§3) To investigate whether the mutation and the additional glycan on IFNλ4 variants affect their binding to their receptors, IL10Rβ and IFNλR1, in-vitro binding affinity of the IFNλ4 variants to IL10Rβ and IFNλR1 was evaluated using biolayer light interferometry (BLI) and then compared with that of wild-type IFNλ4 (eIFNλ4) purified from E. coli. Similar to eIFNλ4, the three IFNλ4 variants appropriately bound to the receptor, and the binding affinity for IFNλR1 was higher than the binding affinity for IL10Rβ (FIG. 4).

[3] = target: T1, IFNλR1; assay: BLI (BLItz), biotinylated eIFNλ4 immobilized on streptavidin biosensor, IFNλR1 as analyte (500, 1000, 2000 nM), 1:1 global fit
Procedure: as §1, §2

[4] = target: T2, IL10Rβ; assay: BLI (BLItz), biotinylated eIFNλ4 immobilized on streptavidin biosensor, IL10Rβ as analyte (500, 1000, 2000 nM), 1:1 global fit; column head k dis
Procedure: as §1, §2

[5] = target: T1, IFNλR1; assay: BLI (BLItz), biotinylated IFNλ4 on streptavidin sensor, IFNλR1 in solution at 500-2000 nM, 1:1 global fit
Procedure: as §1, §2, §3

[6] = target: T2, IL10Rβ; assay: BLI (BLItz), biotinylated eIFNλ4 immobilized on streptavidin biosensor, IL10Rβ as analyte (500, 1000, 2000 nM), 1:1 global fit
Procedure: as §1, §2

[7] = target: T2, IL10Rβ; assay: BLI (BLItz), biotinylated IFNλ4 variant immobilized on streptavidin biosensor, IL10Rβ as analyte (500, 1000, 2000 nM), 1:1 global fit
Procedure: as §1, §2

[8] = target: T2, IL10Rβ; assay: BLI (BLItz), biotinylated IFNλ4 variant immobilized on streptavidin biosensor, IL10Rβ as analyte (500, 1000, 2000 nM), 1:1 global fit; column head k dis
Procedure: as §1, §2

[9] = target: T1, IFNλR1; assay: BLI (BLItz), biotinylated IFNλ4 variant immobilized on streptavidin biosensor, IFNλR1 as analyte (500, 1000, 2000 nM), 1:1 global fit; column head k dis
Procedure: as §1, §2

[10] = target: T1, IFNλR1; assay: BLI (BLItz), biotinylated IFNλ4 variant immobilized on streptavidin biosensor, IFNλR1 as analyte (500, 1000, 2000 nM), 1:1 global fit
Procedure: as §1, §2

koff [1]: 0.000397 s⁻¹ | Kd [2]: 0.071 µM | kon [3]: 21300 M⁻¹ s⁻¹ | koff [4]: 0.00203 s⁻¹ | Kd [5]: 0.019 µM | kon [6]: 28800 M⁻¹ s⁻¹
B1: eIFNλ4 (wild-type IFNλ4 produced in E. coli, R&D Systems 9165-IL) (ligand)
chain: MAPRRCLLSHYRSLEPRTLAAAKALRDRYEEEALSWGQRNCSFRPRRDPPRPSSCARLRHVARGIADAQAVLSGLHRSELLPGAGPILELLAAAGRDVAACLELARPGSSRKVPGAQKRRHKPRRADSPRCRKASVVFNLLRLLTWELRLAAHSGPCL
modifications: not glycosylated (E. coli); biotinylated for BLI
notes: Bought as protein and used as the wild-type control; also called eIFNL4; control wild-type IFNλ4

kon [7]: 21300 M⁻¹ s⁻¹ | Kd [2]: 0.049 µM | Kd [5]: 0.014 µM | koff [8]: 0.00104 s⁻¹ | koff [9]: 0.000686 s⁻¹ | kon [10]: 50200 M⁻¹ s⁻¹
B2: M1 (L28N) IFNλ4 variant (ligand)
chain: B1 chain with M1A, L7N
modifications: N-glycan at Asn61 (L28N not glycosylated); biotinylated for BLI
notes: Secreted from Expi293F cells as a C-terminal Protein A fusion; Protein A was removed by thrombin at an LVPRGS site; Monomer by SDS-PAGE; also called L28N (M1)

kon [7]: 29100 M⁻¹ s⁻¹ | Kd [2]: 0.051 µM | Kd [5]: 0.022 µM | koff [8]: 0.00148 s⁻¹ | koff [9]: 0.000647 s⁻¹ | kon [10]: 29200 M⁻¹ s⁻¹
B3: M3 (P73N) IFNλ4 variant (ligand)
chain: B1 chain with M1A, P52N
modifications: N-glycans at Asn61 and at P73N (Asn73); biotinylated for BLI
notes: Secreted from Expi293F cells as a C-terminal Protein A fusion; Protein A was removed by thrombin at an LVPRGS site; Monomer by SDS-PAGE; also called P73N (M3)

kon [7]: 26200 M⁻¹ s⁻¹ | Kd [2]: 0.049 µM | Kd [5]: 0.017 µM | koff [8]: 0.00129 s⁻¹ | koff [9]: 0.000967 s⁻¹ | kon [10]: 58300 M⁻¹ s⁻¹
B4: M7 (L28N+P73N) IFNλ4 variant (ligand)
chain: B1 chain with M1A, L7N, P52N
modifications: N-glycans at Asn61 and at P73N (Asn73); L28N not glycosylated; biotinylated for BLI
notes: Secreted from Expi293F cells as a C-terminal Protein A fusion; Protein A was removed by thrombin at an LVPRGS site; Monomer by SDS-PAGE; also called double mutant
